Measured values taken from publication PMC7072344, “Structure–Activity Relationship of HER2 Receptor Targeting Peptide and Its Derivatives in Targeted Tumor Therapy” (Biomolecules, 2020).

Molecular target: T1, human epidermal growth factor 2 (HER2) receptor (human (endogenous in MDA-MB-453, …, UniProt P04626 23-1255))
T1 construct: HER2 (ErbB2), 185 kDa transmembrane glycoprotein, endogenous on human breast cancer cell lines; No isolated HER2 was tested; also called ErbB2; source: endogenous, on MDA-MB-453 breast cancer cells (highest HER2 expression); also on MDA-MB-435 Br and MCF-7 cells (medium HER2 expression)
Experiment: flow cytometry on cells; MDA-MB-453 cells incubated with CF-labelled peptides, 12.5 µM, 3 h, 37 °C, 5 min trypsinization; read-out percentage of CF+ live cells and mean fluorescence intensity
Conditions: one partner purified

- fold increase of mean fluorescence intensity over P(AA): ~10 fold
B1: CF-KAAYSLGYYNPT-NH2 (peptide)
peptide: {5(6)‑carboxyfluorescein}-KAAYSLGYYNPT-NH2
notes: combined peptide: KAAYSL followed by GYYNPT; also called cP(AA)_P(YY); cP(AA)_(YY); source: synthetic peptide (Fmoc/tBu solid phase, RP-HPLC purified)
